Laboratory results from patent publication US20040110688A1 (SAINT LOUIS UNIVERSITY, published 2004).

T1: factor VIIIa (human, UniProt P00451 20-2351)
T1 sequence (looked up): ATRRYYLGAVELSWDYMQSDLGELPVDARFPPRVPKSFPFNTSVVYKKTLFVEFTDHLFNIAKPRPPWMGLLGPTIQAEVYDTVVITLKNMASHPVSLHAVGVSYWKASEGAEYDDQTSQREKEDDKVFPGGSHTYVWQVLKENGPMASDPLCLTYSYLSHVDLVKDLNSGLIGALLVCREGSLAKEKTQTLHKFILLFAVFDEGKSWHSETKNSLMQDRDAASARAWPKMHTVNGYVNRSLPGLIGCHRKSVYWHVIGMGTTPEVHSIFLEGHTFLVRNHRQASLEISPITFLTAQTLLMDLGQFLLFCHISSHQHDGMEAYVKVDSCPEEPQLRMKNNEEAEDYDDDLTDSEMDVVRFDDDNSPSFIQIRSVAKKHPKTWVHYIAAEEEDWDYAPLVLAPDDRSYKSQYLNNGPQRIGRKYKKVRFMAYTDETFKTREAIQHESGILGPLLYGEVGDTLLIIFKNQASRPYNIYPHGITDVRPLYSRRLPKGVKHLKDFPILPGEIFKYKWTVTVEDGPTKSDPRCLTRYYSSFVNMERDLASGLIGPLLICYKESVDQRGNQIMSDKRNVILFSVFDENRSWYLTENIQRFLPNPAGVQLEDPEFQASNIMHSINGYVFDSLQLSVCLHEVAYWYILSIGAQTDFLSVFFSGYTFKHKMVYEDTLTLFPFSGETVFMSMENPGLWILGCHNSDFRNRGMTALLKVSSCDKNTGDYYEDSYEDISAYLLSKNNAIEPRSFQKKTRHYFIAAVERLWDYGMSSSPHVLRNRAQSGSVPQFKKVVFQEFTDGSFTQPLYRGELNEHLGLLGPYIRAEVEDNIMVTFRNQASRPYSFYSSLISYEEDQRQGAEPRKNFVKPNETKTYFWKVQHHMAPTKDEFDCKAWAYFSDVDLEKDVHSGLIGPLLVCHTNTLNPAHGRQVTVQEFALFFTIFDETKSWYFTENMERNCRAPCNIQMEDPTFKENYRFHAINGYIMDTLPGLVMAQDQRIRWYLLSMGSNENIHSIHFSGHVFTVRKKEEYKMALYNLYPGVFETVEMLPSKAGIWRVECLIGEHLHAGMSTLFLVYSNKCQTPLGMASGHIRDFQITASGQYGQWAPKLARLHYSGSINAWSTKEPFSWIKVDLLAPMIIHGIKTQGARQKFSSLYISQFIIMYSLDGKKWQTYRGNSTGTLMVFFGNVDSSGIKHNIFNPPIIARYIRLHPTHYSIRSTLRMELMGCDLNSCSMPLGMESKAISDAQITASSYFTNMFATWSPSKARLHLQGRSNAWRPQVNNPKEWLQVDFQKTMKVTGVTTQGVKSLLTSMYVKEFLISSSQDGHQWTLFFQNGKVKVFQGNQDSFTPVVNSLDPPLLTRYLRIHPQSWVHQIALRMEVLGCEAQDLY

B1: P-4488 SEQ ID NO: 2 (DRAT) (peptide)
peptide: DRAT
B2: P-4351 SEQ ID NO: 6 (LVDRAT) (peptide)
peptide: LVDRAT
B3: P-4352 SEQ ID NO: 7 (LVYRAT) (peptide)
peptide: LVYRAT
B4: P-4353 SEQ ID NO: 8 (LVDQAT) (peptide)
peptide: LVDQAT
B5: EGF1 Domain (other, UniProt P00740 93-131, looked up)
chain: DGDQCESNPCLNGGSCKDDINSYECWCPFGFEGKNCELD
notes: domain: EGF1 Domain
B6: P-4354 (TKVSRYVN) (peptide)
peptide: TKVSRYVN

Experiments:
factor VIIIa [1] = target: T1, factor VIIIa; experiment: peptide competition assay: inhibition of factor X activation by IXa with VIIIa and phospholipid
Procedure: Each reaction was incubated for either 30, 60, 90, or 120 seconds and the reaction was stopped by adding 1.5 μL of 0.5 M EDTA and placed on ice. Forty μL of each reaction was added to 100 μL of TBS/BSA in a 96 well microtiter plate and S-2222 (Bz-Ile-Glu(γ-OR)-Gly-Arg-p-nitroanilide) was added to a final concentration of 100 μM.

factor VIIIa [2] = target: T1, factor VIIIa; experiment: Kd from the peptide competition assay (factor X activation by IXa with VIIIa and phospholipid)

Row | Binder | IC50 (factor VIIIa [1]) | Kd (factor VIIIa [2])
1 | B1 | 89.8 µM | 44.9 µM
2 | B2 | 0.7 µM | 0.35 µM
3 | B3 | 13.2 µM | 6.6 µM
4 | B4 | 9.3 µM | 4.7 µM
5 | B5 | 12 µM | 6 µM
6 | B6 |  | 1 µM
